Assays:
Experiment in all cases: flow cytometry on transiently transfected L1.2 cells
[1] = molecular target: T1, chimeric receptor 1. HHHH (human, UniProt P21730 1-350)
T1 construct: Transiently expressed on mouse L1.2 cells
T1 chain: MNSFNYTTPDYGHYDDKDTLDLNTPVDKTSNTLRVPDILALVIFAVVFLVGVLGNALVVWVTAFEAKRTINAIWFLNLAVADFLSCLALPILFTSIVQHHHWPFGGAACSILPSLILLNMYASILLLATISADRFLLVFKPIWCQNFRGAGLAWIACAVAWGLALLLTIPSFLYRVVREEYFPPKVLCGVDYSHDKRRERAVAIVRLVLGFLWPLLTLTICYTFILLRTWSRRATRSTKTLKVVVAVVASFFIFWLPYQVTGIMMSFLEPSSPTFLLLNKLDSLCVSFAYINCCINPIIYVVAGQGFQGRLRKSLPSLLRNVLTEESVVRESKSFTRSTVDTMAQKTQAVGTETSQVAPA
Experimental: (§1) A series of chimeric receptors comprising segments of mouse and human C5aR were constructed to identify the region of the C5a receptor that the antibodies bound. […] Each recombinant vector (5 μg diluted in DMEM) encoding a different chimeric receptor was transfected into 5×10⁵ mouse L1.2 cells using Lipofectamine 2000 (Invitrogen). Cells were grown in DMEM or RPMI (Invitrogen) plus 10% foetal bovine serum (Hyclone). After 24 hours or 48 hours, cells were harvested by centrifugation at 1,500 rpm for 5 min and resuspended in FACS buffer (phosphate buffered saline plus 2% bovine serum albumin). For staining with hAb-Q, 0.5×10⁵ transfected cells were incubated with 5 or 10 μg/ml antibody in a volume of 50 μl per well at 4° C. for 20 minutes. Cells were pelleted as above and rinsed 3 times with 150 μl FACS buffer before addition of 50 μl FITC-conjugated anti-human IgG diluted 1:200 or 1:300 (Sigma, F1641). This mix was incubated for 20 min at 4° C. before cells were pelleted, washed with FACS buffer 3 times and finally resuspended in 150-200 μl FACS buffer. Samples were analysed on a FACS Calibur (BD Biosciences).
(§2) To confirm that the humanised antibody hAb-Q, which was derived from mouse mAb 7F3 by CDR grafting, and therefore should contain the same antigen-binding site, had the same staining pattern as 7F3, transiently transfected cells expressing the different chimeric human/mouse C5aR were stained with hAb-Q and analysed by flow cytometry. The pattern of staining by hAb-Q was identical to that observed with 7F3. There was no staining by the secondary antibody (anti-hIgG-FITC) alone.

[2] = molecular target: T2, chimeric receptor 2. mHHH (mouse; human, UniProt P30993 1-39)
T2 construct: range 1-39; Transiently expressed on mouse L1.2 cells
T2 sequence: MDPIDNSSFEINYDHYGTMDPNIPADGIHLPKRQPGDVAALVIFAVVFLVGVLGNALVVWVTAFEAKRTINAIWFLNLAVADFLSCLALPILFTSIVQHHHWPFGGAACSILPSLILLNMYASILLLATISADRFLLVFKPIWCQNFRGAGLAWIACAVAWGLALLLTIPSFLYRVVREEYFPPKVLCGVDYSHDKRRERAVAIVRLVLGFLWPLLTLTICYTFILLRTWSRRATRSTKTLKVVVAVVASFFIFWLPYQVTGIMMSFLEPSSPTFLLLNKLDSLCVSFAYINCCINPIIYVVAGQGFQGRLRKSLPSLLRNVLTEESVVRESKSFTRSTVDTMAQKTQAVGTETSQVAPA
Experimental: as §1, §2

[3] = molecular target: T3, chimeric receptor 3. mmHH (mouse; human, UniProt P30993 1-111)
T3 construct: range 1-111; Transiently expressed on mouse L1.2 cells
T3 sequence: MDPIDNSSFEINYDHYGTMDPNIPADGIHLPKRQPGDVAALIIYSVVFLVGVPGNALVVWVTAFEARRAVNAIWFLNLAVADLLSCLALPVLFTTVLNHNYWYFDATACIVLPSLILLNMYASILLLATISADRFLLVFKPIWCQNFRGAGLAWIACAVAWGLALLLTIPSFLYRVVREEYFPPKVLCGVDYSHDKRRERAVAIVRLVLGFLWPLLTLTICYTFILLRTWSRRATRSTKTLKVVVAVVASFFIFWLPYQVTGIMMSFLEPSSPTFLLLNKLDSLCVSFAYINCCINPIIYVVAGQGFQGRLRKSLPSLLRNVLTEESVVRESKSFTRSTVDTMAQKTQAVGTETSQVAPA
Experimental: as §1, §2

[4] = molecular target: T4, chimeric receptor 6. HmHH (human; mouse, UniProt P30993 93-111)
T4 construct: range 93-111; Transiently expressed on mouse L1.2 cells
T4 sequence: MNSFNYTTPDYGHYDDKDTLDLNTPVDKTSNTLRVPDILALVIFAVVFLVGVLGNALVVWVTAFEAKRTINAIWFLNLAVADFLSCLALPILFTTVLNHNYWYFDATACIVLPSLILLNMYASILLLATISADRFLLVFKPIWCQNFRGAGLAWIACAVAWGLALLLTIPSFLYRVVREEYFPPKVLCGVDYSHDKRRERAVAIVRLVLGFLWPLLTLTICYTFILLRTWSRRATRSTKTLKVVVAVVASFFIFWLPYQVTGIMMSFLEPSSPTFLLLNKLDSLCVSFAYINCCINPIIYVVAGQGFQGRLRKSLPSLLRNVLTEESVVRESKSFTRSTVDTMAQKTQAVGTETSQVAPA
Experimental: as §1, §2

[5] = molecular target: T5, chimeric receptor 8. HHHm (human; mouse, UniProt P30993 264-283, limits assumed)
T5 construct: Transiently expressed on mouse L1.2 cells
T5 sequence: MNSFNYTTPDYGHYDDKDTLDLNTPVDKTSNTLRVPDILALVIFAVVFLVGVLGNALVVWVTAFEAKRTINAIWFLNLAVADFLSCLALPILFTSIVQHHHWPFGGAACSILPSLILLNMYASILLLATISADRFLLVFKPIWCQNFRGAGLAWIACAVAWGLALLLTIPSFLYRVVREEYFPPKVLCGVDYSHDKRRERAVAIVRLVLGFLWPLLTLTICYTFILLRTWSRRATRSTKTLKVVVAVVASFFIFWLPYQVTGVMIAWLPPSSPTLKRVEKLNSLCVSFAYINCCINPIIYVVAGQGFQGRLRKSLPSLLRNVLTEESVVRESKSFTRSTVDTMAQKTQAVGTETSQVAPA
Experimental: as §1, §2

Measured: binding result

B1: humanized anti-C5aR antibody hAb-Q (antibody, human IgG4 S228P, kappa)
light: DVVMTQSPLSLPVTLGEPASISCRSSQSLVHSNGNTYLHWYLQKPGQSPQLLIYKVSNRFSGVPDRFSGSGSGTDFTLKISRVEAEDVGVYFCSQSTLVPLTFGQGTKLEIKRTVAAPSVFIFPPSDEQLKSGTASVVCLLNNFYPREAKVQWKVDNALQSGNSQESVTEQDSKDSTYSLSSTLTLSKADYEKHKVYACEVTHQGLSSPVTKSFNRGEC
heavy: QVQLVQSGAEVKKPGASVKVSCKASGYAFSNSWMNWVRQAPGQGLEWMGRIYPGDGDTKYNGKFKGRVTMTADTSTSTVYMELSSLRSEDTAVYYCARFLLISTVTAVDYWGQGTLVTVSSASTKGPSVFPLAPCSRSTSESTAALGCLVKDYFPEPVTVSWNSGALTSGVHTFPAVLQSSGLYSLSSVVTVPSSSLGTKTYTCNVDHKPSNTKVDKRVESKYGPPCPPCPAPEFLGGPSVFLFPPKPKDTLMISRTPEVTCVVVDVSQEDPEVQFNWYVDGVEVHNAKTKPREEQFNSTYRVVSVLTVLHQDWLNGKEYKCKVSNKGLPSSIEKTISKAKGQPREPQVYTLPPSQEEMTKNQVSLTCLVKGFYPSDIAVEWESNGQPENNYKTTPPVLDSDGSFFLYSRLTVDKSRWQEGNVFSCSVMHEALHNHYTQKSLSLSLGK
notes: IgG4 with the Ser228Pro mutation; also called antibody Q; anti-C5aR ab
binds: [1] | [2] | [3] | [4] | [5]
